Consider 1 molecule from patent US20210139574A1.

The assay has as its target Tau seeds: brain fraction from transgenic mice expressing human Tau P301S (human), P10636. As to the kind of experiment: cell-based or functional assay.

Chain of Tau seeds: brain fraction from transgenic mice expressing human Tau P301S (human), P10636 (P10636 other isoform, or with tags, fused parts or gaps P301S P301S): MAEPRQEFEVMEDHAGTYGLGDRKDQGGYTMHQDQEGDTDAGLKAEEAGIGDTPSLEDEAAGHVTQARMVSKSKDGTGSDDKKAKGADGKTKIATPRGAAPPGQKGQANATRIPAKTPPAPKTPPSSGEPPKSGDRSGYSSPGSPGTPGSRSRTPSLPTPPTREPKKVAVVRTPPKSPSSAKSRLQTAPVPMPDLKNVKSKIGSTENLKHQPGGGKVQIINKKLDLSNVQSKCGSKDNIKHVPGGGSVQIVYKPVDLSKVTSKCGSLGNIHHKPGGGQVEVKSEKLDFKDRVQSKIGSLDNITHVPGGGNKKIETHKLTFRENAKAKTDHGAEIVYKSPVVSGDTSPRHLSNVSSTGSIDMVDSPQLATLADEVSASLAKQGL

B1: AB1 having a murinised VL of SEQ ID NO: 9 and a murinised VH of SEQ ID NO.: 10 (antibody, V domains shown)
VL: DVVMTQSPASLAVSLGQRATISCQASQSVSSYLAWYQQKPGQPPKLLIYAASYLASGVPSRFKGSGSGTEFTLNIHPVEEEDAATYYCQQGYTRTDIDNTFGGGTKLEIK
VH: QVQLKESGPGLVAPSQSLSITCTVSGIDLSTWRMNWVRQPPGKGLEWIGIIGTGGRTYYANWAKGRFSISKDSTQVFLKMNSLQTEDTATYFCARLGANNNGYPLDLWGAGTTVTVSS
In turn, B1 had an IC50, cellular Tau aggregation assay of 8 nM and an Imax (maximal efficacy at 300 nM), cellular Tau aggregation assay of 62%.
